T1: Cyno DLL3-ECD (extracellular domain of cynomolgus macaque DLL3, residues 27 to 466, Avi-tag, 3C site, Fc knob … (cynomolgus macaque, UniProt A0A2K5WSR1 27-464, biotinylated at the Avi-tag (Example 11)))
T1 construct: range 27-466; also called cyno ECD; cynomolgus monkey DLL3; not shown: Avi-tag, 3C protease recognition site and Fc knob into hole
T1 sequence: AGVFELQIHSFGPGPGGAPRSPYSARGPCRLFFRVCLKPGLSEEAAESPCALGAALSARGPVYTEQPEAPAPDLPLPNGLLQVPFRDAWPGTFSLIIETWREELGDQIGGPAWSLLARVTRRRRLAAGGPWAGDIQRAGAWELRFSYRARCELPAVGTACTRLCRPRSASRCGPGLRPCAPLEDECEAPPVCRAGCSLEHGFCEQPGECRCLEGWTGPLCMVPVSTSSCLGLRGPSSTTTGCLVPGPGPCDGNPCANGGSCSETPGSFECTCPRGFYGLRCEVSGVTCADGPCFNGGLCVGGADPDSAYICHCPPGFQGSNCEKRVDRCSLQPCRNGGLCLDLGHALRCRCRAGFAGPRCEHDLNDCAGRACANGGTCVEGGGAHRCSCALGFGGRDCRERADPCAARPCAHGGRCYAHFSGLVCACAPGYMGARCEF

T2: Human DLL3-NTD (truncated human DLL3, N-Terminal Domain, residues 27-189, C-terminal 6xHis and Avi-tag) (human, UniProt Q9NYJ7 27-189)
T2 construct: also called hDLL3-NTD; human NTD; not shown: C-terminal 6xHis and Avi-tag
T2 sequence: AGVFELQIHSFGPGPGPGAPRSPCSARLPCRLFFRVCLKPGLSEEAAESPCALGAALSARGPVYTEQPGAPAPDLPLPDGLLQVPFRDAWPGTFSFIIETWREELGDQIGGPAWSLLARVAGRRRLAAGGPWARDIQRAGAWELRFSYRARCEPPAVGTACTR

T3: Dog DLL3-NTD (truncated dog DLL3, N-Terminal Domain, residues 27-189, C-terminal 6xHis and Avi-tag) (dog, UniProt A0A8I3MXZ5 27-188, biotinylated at the Avi-tag)
T3 construct: also called dog NTD; not shown: C-terminal 6xHis and Avi-tag
T3 sequence: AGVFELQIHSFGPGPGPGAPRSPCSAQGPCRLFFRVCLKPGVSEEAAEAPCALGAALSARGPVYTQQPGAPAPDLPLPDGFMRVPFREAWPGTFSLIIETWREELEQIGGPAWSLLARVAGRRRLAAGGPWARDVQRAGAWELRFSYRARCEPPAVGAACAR

T4: Human DLL3 expressed on cells (HEK293T-hDLL3, NCI-H82, SHP-77, MC38-hDLL3) (human, UniProt Q9NYJ7 27-618)
T4 construct: also called DLL3 endogenously expressed on human cells
T4 sequence: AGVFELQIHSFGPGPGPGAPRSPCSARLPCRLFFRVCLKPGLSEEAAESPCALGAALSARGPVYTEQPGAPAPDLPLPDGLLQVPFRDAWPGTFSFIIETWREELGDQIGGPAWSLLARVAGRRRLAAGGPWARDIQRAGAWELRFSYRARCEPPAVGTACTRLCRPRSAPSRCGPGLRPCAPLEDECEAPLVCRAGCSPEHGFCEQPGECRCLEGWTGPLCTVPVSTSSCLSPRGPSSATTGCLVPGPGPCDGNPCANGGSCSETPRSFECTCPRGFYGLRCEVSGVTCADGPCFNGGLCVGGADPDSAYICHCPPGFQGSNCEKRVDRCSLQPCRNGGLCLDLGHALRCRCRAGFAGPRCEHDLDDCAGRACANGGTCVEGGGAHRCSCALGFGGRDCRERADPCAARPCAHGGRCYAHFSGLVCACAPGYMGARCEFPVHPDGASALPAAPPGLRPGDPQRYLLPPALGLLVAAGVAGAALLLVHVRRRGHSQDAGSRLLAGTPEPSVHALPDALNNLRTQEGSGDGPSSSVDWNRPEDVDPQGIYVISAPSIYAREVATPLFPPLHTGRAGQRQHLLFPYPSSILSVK

B1: High HSA affinity 2D DARPin (SEQ ID NO: 17), Cysteine capped with iodoacetamide (designed binder)
chain: GSDLGKKLLEAARAGQDDEVRELLKAGADVNAKDYFSHTPLHLAARNGHLKIVEVLLKAGADVNAKDFAGKTPLHLAADAGHLEIVEVLLKAGADVNAQDIFGKTPADIAADAGHEDIAEVLQKAAGSPTPTPTTPTPTPTTPTPTPTGSDLGTKLLSAAADGQDDEVRELLQAGADVNAKDLFGYTPLHLAAWRGHLEIVEVLLEAGADVNAKDAAGLTPLHLAAWFGHLEIVEVLLEAGADVNAQDVQGVTPADLAAKEGHEDIAEVLQQAAGSGSC
modifications: free C-terminal Cysteine capped with Iodoacetamide (IAM)
notes: MAM160 with GS at the N-terminus and a Cysteine-containing tag at the C-terminus, without His-tag; also called GS-MAM160-tag
B2: MAM279 (SEQ ID NO: 11) with a Glycine-Serine (GS) at its N-terminal end and an N-terminal His-tag (SEQ ID NO: 19) (designed binder)
chain: MRGSHHHHHHGSDLGKKLLEAARAGQDDEVRELLKAGADVNAKDYFSHTPLHLAARNGHLKIVEVLLKAGADVNAKDFAGKTPLHLAADAGHLEIVEVLLKAGADVNAQDIFGKTPADIAADAGHEDIAEVLQKAAGSPTPTPTTPTPTPTTPTPTPTGSDLGKKLLAAAAQGQDDEVRELLKAGANVNAKDLFGYTPLHLAAWRGHLEIVEVLLKAGADVNAKDAAGETPLHLAAWFGHLEIVEVLLKAGADVNAQDLQGKTPADLAAKEGHEDIAEVLQKAA
notes: also called unconjugated MAM279
B3: Non-binding DARPin control comprising SEQ ID NO: 22 (designed binder)
chain: DLGKKLLEAARAGQDDEVRELLKAGADVNAKDKDGYTPLHLAAREGHLEIVEVLLKAGADVNAKDKDGYTPLHLAAREGHLEIVEVLLKAGADVNAQDKSGKTPADLAADAGHEDIAEVLQKAAGSPTPTPTTPTPTPTTPTPTPTGSDLGKKLLEAARAGQDDEVRELLKAGADVNAKDKDGYTPLHLAAREGHLEIVEVLLKAGADVNAKDKDGYTPLHLAAREGHLEIVEVLLKAGADVNAQDKSGKTPADLAADAGHEDIAEVLQKAA
notes: Negative control on NCI-H82 cells; also called control DARPin
B4: Human DLL3-ECD (recombinant extracellular domain of human DLL3, Examples 11, 17 and 19) (Fc fusion)
chain: AGVFELQIHSFGPGPGPGAPRSPCSARLPCRLFFRVCLKPGLSEEAAESPCALGAALSARGPVYTEQPGAPAPDLPLPDGLLQVPFRDAWPGTFSFIIETWREELGDQIGGPAWSLLARVAGRRRLAAGGPWARDIQRAGAWELRFSYRARCEPPAVGTACTRLCRPRSAPSRCGPGLRPCAPLEDECEAPLVCRAGCSPEHGFCEQPGECRCLEGWTGPLCTVPVSTSSCLSPRGPSSATTGCLVPGPGPCDGNPCANGGSCSETPRSFECTCPRGFYGLRCEVSGVTCADGPCFNGGLCVGGADPDSAYICHCPPGFQGSNCEKRVDRCSLQPCRNGGLCLDLGHALRCRCRAGFAGPRCEHDLDDCAGRACANGGTCVEGGGAHRCSCALGFGGRDCRERADPCAARPCAHGGRCYAHFSGLVCACAPGYMGARCEF
modifications: biotinylated at the Avi-tag where immobilised (Examples 11 and 19)
notes: also called hDLL3-ECD; human ECD; not shown: Avi-tag and Fc knob into hole (order depends on the format)

For assay [1], the target named is T5, human serum albumin (human, UniProt P02768 25-609).
T5 construct: also called HSA
Nature of the assay: SPR (ProteOn), HSA on chip.

In assay [2] the target is T5, human serum albumin. As to the kind of experiment: SPR (ProteOn), HSA on chip, IAM-capped 2D DARPin as analyte, 1:1 Langmuir fit.
Experimental: (§4) For SPR analysis, the free Cysteine of the 2D DARPins was capped with Iodoacetamide (IAM). […] Various concentrations of 2D DARPins starting from 2000 nM were applied to immobilized human serum albumin (HSA) or mouse serum albumin (MSA) for on-rate and off-rate measurements.
(§5) The data were generated using a BioRad ProteOn instrument with SPR running buffer (PBS, pH 7.4 containing 0.05% Tween 20®). A HC200M chip (Xantec) was conditioned according to the manufacturer's protocol. […] The data was double referenced (control spot and buffer injection) and fitted to a 1:1 Langmuir model. The obtained SPR traces were used to determine binding parameters.
Assay [3] concerns the target T6, mouse serum albumin (mouse, UniProt P07724 25-608).
T6 construct: also called MSA
As to the kind of experiment: SPR (ProteOn), MSA on chip, IAM-capped 2D DARPin as analyte, 1:1 Langmuir fit.
Experimental: as §4, §5

The target in assay [4] is T6, mouse serum albumin. Nature of the assay: SPR (ProteOn), MSA on chip, DARPin as analyte, 1:1 Langmuir fit. As to the method: (§1) SPR multi-trace analyses were performed similarly as described in previous Examples.
(§2) All analytes (3-fold dilution ranging from 600-7.41 nM) were injected in succession for 240 s and dissociation was recorded for 600 s using a constant flow of 25 μl/min (HSA) or 100 μl/min (MSA) (25 μl/min).

The target in assay [5] is T1, Cyno DLL3-ECD (extracellular domain of …). Nature of the assay: SPR (ProteOn), biotinylated cyno DLL3-ECD on chip, DARPin as analyte, 1:1 Langmuir fit. As to the method:
(§3) The data were generated using BioRad ProteOn instrument in SPR running buffer (PBS, pH 7.4 containing 0.005% Tween 20©). […] The chip was coated with biotinylated target to reach a signal intensity of 1516 RU (human ECD), 257 RU (human NTD), 1500 RU (cyno ECD) and 228 RU (dog NTD). […] Each injection was followed by a regeneration step with 16 mM H₃PO₄ for 18 s. […] The obtained SPR traces were used to determine on-rate and off-rate interaction parameters.

The target in assay [6] is T2, Human DLL3-NTD (truncated human DLL3, …). As to the kind of experiment: SPR (ProteOn), biotinylated human DLL3-NTD on chip, DARPin as analyte, 1:1 Langmuir fit. As to the method:
as §3

Assay [7] concerns the target B4. Nature of the assay: SPR (ProteOn), biotinylated human DLL3-ECD on chip, DARPin as analyte, 1:1 Langmuir fit. As to the method:
as §3

In assay [8] the target is T5, human serum albumin. Nature of the assay: SPR (ProteOn), HSA on chip, DARPin as analyte, 1:1 Langmuir fit. As to the method:
as §1, §2

For assay [9], the target named is T1, Cyno DLL3-ECD (extracellular domain of …). As to the kind of experiment: SPR (ProteOn).
Assay [10] has as its target T3, Dog DLL3-NTD (truncated dog DLL3, …). As to the kind of experiment: SPR (ProteOn).
Assay [11] has as its target B4. As to the kind of experiment: SPR (ProteOn), biotinylated human DLL3-ECD on chip, DARPin as analyte, 1:1 Langmuir fit (same values as Table 14). As to the method: as §3
In assay [12] the target is T3, Dog DLL3-NTD (truncated dog DLL3, …). Nature of the assay: SPR (ProteOn), biotinylated dog DLL3-NTD on chip, DARPin as analyte, 1:1 Langmuir fit. As to the method: as §3
Assay [13] concerns the target T4, Human DLL3 expressed on cells …. Nature of the assay: flow cytometry titration on NCI-H82 cells, with HSA. Background: Flow cytometry measures light scatter and fluorescence of single cells or particles in a stream.
In assay [14] the target is T5, human serum albumin. Nature of the assay: SPR, HSA injected (injection 2) over immobilised hDLL3-ECD without conjugate.

Data on 4 molecules can be found in patent US20250332297A1, “DLL3-SPECIFIC BINDING CONSTRUCTS AND THEIR USE IN RADIOTHERAPY” (MOLECULAR PARTNERS AG, priority 2024, published 2025).

For orientation: Kd means the free concentration of one partner at which half of the binding sites on the other are occupied at equilibrium, for simple one-to-one binding. The koff is the rate constant with which the complex falls apart. One may read the kon as a measure of how fast the partners come together.

T6 sequence (P07724 25-608 limits assumed): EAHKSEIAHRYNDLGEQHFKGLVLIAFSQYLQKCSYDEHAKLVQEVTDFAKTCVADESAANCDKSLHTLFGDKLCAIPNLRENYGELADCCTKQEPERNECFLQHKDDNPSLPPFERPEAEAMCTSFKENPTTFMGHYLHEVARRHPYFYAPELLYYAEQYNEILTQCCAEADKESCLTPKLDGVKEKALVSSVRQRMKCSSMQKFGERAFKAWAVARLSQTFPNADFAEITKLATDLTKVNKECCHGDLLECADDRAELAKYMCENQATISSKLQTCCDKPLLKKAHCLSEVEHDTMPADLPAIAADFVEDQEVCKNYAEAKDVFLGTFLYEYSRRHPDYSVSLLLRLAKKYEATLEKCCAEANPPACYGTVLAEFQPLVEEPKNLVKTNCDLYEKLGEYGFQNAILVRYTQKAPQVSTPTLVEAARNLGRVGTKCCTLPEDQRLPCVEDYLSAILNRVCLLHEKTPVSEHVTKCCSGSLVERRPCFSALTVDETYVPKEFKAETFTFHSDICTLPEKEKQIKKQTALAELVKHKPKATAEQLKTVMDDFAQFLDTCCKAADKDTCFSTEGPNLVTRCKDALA

With B1, in [1], the “fold higher binding affinity than the Low HSA affinity 2D DARPin” value was roughly 10 fold. Besides, in assay [2], the Kd is 295 nM, the koff came out at 0.0311 s⁻¹ and the kon was found to be 105000 M⁻¹ s⁻¹. In assay [3], this molecule had a Kd of 259 nM, a koff of 0.0345 s⁻¹ and an on-rate constant (kon) of 133000 M⁻¹ s⁻¹.

On to B2, for which the Kd in assay [4] worked out at 144 nM; in assay [5], 22 nM; in [6] it was 0.263 nM; in assay [7], 0.174 nM; in [8], 75.5 nM; in [11] it was 0.174 nM. The same molecule showed a Kd in assay [12] of 1.2 nM. The off-rate constant (koff) in [4] is 0.0383 s⁻¹; in assay [5] it was 0.000978 s⁻¹; in [6], 1.54e-05 s⁻¹; in assay [7] it was 1.45e-05 s⁻¹; in assay [8], 0.0216 s⁻¹; in assay [11] it was 1.45e-05 s⁻¹. In assay [12], this molecule came in with an off-rate constant (koff) of 5.58e-05 s⁻¹. Further, the kon in [4] was 267000 M⁻¹ s⁻¹; in assay [5], 44500 M⁻¹ s⁻¹; in assay [6], 58700 M⁻¹ s⁻¹; in assay [7] it was 83500 M⁻¹ s⁻¹; in assay [8], 286000 M⁻¹ s⁻¹; in [11] it was 83500 M⁻¹ s⁻¹. For the same molecule, in assay [12], the kon was determined as 46400 M⁻¹ s⁻¹. In addition, the “fold lower affinity than to human DLL3-ECD” value is roughly 100 fold in [9] and roughly 10 fold in assay [10].

Regarding B3, in assay [13], the binding result is listed as “no binding (tested: 500 nM)”.

For B4, the binding result in [14] is “no binding (tested: 1000 nM)”.
